Test results published in the supplement of paper PMC11246515.
± gives the standard deviation of the averaged measurements.

Test: total protein half-life in vivo (active degradation + dilution); higher = more stable protein
[1] = wild type E. coli NCM3722, growth: C-lim chemostat, doubling time 3 h
[2] = wild type E. coli NCM3722, growth: C-lim chemostat, doubling time 6 h
[3] = wild type E. coli NCM3722, growth: C-lim chemostat, doubling time 12 h
[4] = E. coli NCM3722 delta-clpP delta-lon delta-hslV, growth: N-lim chemostat, doubling time 6 h
[5] = E. coli NCM3722 delta-clpP, growth: N-lim chemostat, doubling time 6 h
[6] = E. coli NCM3722 delta-hslV, growth: N-lim chemostat, doubling time 6 h
[7] = E. coli NCM3722 delta-lon, growth: N-lim chemostat, doubling time 6 h
[8] = E. coli NCM3722 delta-smpB, growth: N-lim chemostat, doubling time 6 h
[9] = wild type E. coli NCM3722, growth: N-lim chemostat, doubling time 6 h
[10] = wild type E. coli NCM3722, growth: N-lim chemostat, doubling time 12 h
[11] = wild type E. coli NCM3722, growth: P-lim chemostat, doubling time 6 h
[12] = wild type E. coli NCM3722, growth: P-lim chemostat, doubling time 12 h

Row | Sequence | total protein half-life in vivo [1] | total protein half-life in vivo [2] | total protein half-life in vivo [3] | total protein half-life in vivo [4] | total protein half-life in vivo [5] | total protein half-life in vivo [6] | total protein half-life in vivo [7] | total protein half-life in vivo [8] | total protein half-life in vivo [9] | total protein half-life in vivo [10] | total protein half-life in vivo [11] | total protein half-life in vivo [12]
1 | MFDSLAKAGKYLGQAAKLMIGMPDYDNYVEHMRVNHPDQTPMTYEEFFRERQDARYGGKGGARCC [P0AAS9] | 1.43 h | 1.49 ± 0.45 h | 1.47 h | – | – | – | – | – | – | – | – | –
2 | MALLQISEPGLSAAPHQRRLAAGIDLGTTNSLVATVRSGQAETLADHEGRHLLPSVVHYQQQGHSVGYDARTNAALDTANTISSVKRLMGRSLADIQQRYPHLPYQFQASENGLPMIETAAGLLNPVRVSADILKALAARATEALAGELDGVVITVPAYFDDAQRQGTKDAARLAGLHVLRLLNEPTAAAIAYGLDSGQEGVIAVYDLGGGTFDISILRLSRGVFEVLATGGDSALGGDDFDHLLADYIREQAGIPDRSDNRVQRELLDAAIAAKIALSDADSVTVNVAGWQGEISREQFNELIAPLVKRTLLACRRALKDAGVEADEVLEVVMVGGSTRVPLVRERVGEFFGRPPLTSIDPDKVVAIGAAIQADILVGNKPDSEMLLLDVIPLSLGLETMGGLVEKVIPRNTTIPVARAQDFTTFKDGQTAMSIHVMQGERELVQDCRSLARFALRGIPALPAGGAHIRVTFQVDADGLLSVTAMEKSTGVEASIQVKPSYGLTDSEIASMIKDSMSYAEQDVKARMLAEQKVEAARVLESLHGALAADAALLSAAERQVIDDAAAHLSEVAQGDDVDAIEQAIKNVDKQTQDFAARRMDQSVRRALKGHSVDEV [P0A6Z1] | 2.7 ± 0.2 h | 4.48 ± 0.47 h | 7.07 ± 1.1 h | 5.04 ± 0.78 h | 4.05 ± 0.14 h | 2.65 ± 0.14 h | 3.22 ± 0.24 h | 2.53 ± 0.028 h | 2.857 ± 0.016 h | 3.54 ± 0.12 h | 4.05 ± 0.31 h | 6.96 ± 0.068 h
3 | MFIRAPNFGRKLLLTCIVAGVMIAILVSCLQFLVAWHKHEVKYDTLITDVQKYLDTYFADLKSTTDRLQPLTLDTCQQANPELTARAAFSMNVRTFVLVKDKKTFCSSATGEMDIPLNELIPALDINKNVDMAILPGTPMVPNKPAIVIWYRNPLLKNSGVFAALNLNLTPSLFYSSRQEDYDGVALIIGNTALSTFSSRLMNVNELTDMPVRETKIAGIPLTVRLYADDWTWNDVWYAFLLGGMSGTVVGLLCYYLMSVRMRPGREIMTAIKREQFYVAYQPVVDTQALRVTGLEVLLRWRHPVAGEIPPDAFINFAESQKMIVPLTQHLFELIARDAAELEKVLPVGVKFGINIAPDHLHSESFKADIQKLLTSLPAHHFQIVLEITERDMLKEQEATQLFAWLHSVGVEIAIDDFGTGHSALIYLERFTLDYLKIDRGFINAIGTETITSPVLDAVLTLAKRLNMLTVAEGVETPEQARWLSERGVNFMQGYWISRPLPLDDFVRWLKKPYTPQW | – | 5.92 ± 1.2 h | 10.5 ± 0.13 h | 6.645 ± 0.021 h | 6.81 ± 0.3 h | 6.17 ± 0.16 h | 6.55 ± 1 h | 5.84 ± 0.17 h | 5.91 ± 0.13 h | 11.2 ± 0.95 h | 5.7999 ± 0.0026 h | 10.4 ± 0.3 h
4 | MHQVVCATTNPAKIQAILQAFHEIFGEGSCHIASVAVESGVPEQPFGSEETRAGARNRVANARRLLPEADFWVAIEAGIDGDSTFSWVVIENASQRGEARSATLPLPAVILEKVREGEALGPVMSRYTGIDEIGRKEGAIGVFTAGKLTRASVYHQAVILALSPFHNAVY | 2.81 ± 0.067 h | 5.02 ± 0.2 h | 8.17 ± 0.45 h | 4.71 ± 0.46 h | 3.828 ± 0.038 h | 3.608 ± 0.012 h | 4.01 ± 0.27 h | 3.57 ± 0.16 h | 3.92 h | 5.34 ± 0.057 h | 5.38 ± 0.72 h | 10.9 ± 2 h
5 | MSAVLTAEQALKLVGEMFVYHMPFNRALGMELERYEKEFAQLAFKNQPMMVGNWAQSILHGGVIASALDVAAGLVCVGSTLTRHETISEDELRQRLSRMGTIDLRVDYLRPGRGERFTATSSLLRAGNKVAVARVELHNEEQLYIASATATYMVG [P0ADP2] | 2.82 ± 0.14 h | 5.73 ± 0.62 h | 7.1 ± 2.8 h | 5.02 ± 0.33 h | 2.3 ± 0.16 h | 2.36 ± 0.08 h | 3.45 ± 0.78 h | 2.22 ± 0.052 h | 2.54 ± 0.22 h | 4.13 ± 0.42 h | 5 ± 0.1 h | 12.5 ± 1 h
6 | MSKLLDRFRYFKQKGETFADGHGQVMHSNRDWEDSYRQRWQFDKIVRSTHGVNCTGSCSWKIYVKNGLVTWEIQQTDYPRTRPDLPNHEPRGCPRGASYSWYLYSANRLKYPLIRKRLIELWREALKQHSDPVLAWASIMNDPQKCLSYKQVRGRGGFIRSNWQELNQLIAAANVWTIKTYGPDRVAGFSPIPAMSMVSYAAGTRYLSLLGGTCLSFYDWYCDLPPASPMTWGEQTDVPESADWYNSSYIIAWGSNVPQTRTPDAHFFTEVRYKGTKTIAITPDYSEVAKLCDQWLAPKQGTDSALAMAMGHVILKEFHLDNPSDYFINYCRRYSDMPMLVMLEPRDDGSYVPGRMIRASDLVDGLGESNNPQWKTVAVNTAGELVVPNGSIGFRWGEKGKWNLESIAAGTETELSLTLLGQHDAVAGVAFPYFGGIENPHFRSVKHNPVLVRQLPVKNLTLVDGNTCPVVSVYDLVLANYGLDRGLEDENSAKDYAEIKPYTPAWGEQITGVPRQYIETIAREFADTAHKTHGRSMIILGAGVNHWYHMDMNYRGMINMLIFCGCVGQSGGGWAHYVGQEKLRPQTGWLPLAFALDWNRPPRQMNSTSFFYNHSSQWRYEKVSAQELLSPLADASKYSGHLIDFNVRAERMGWLPSAPQLGRNPLGIKAEADKAGLSPTEFTAQALKSGDLRMACEQPDSSSNHPRNLFVWRSNLLGSSGKGHEYMQKYLLGTESGIQGEELGASDGIKPEEVEWQTAAIEGKLDLLVTLDFRMSSTCLFSDIVLPTATWYEKDDMNTSDMHPFIHPLSAAVDPAWESRSDWEIYKGIAKAFSQVCVGHLGKETDVVLQPLLHDSPAELSQPCEVLDWRKGECDLIPGKTAPNIVAVERDYPATYERFTSLGPLMDKLGNGGKGISWNTQDEIDFLGKLNYTKRDGPAQGRPLIDTAIDASEVILALAPETNGHVAVKAWQALGEITGREHTHLALHKEDEKIRFRDIQAQPRKIISSPTWSGLESDHVSYNAGYTNVHELIPWRTLSGRQQLYQDHPWMRAFGESLVAYRPPIDTRSVSEMRQIPPNGFPEKALNFLTPHQKWGIHSTYSENLLMLTLSRGGPIVWISETDARELTIVDNDWVEVFNANGALTARAVVSQRVPPGMTMMYHAQERIMNIPGSEVTGMRGGIHNSVTRVCPKPTHMIGGYAQLAWGFNYYGTVGSNRDEFIMIRKMKNVNWLDDEGRDQVQEAKK | 2.8 ± 0.2 h | 6.25 ± 1.3 h | 11.5 ± 1.3 h | 6.1 ± 1 h | 5.33 ± 0.2 h | 6.53 ± 0.28 h | 6.11 ± 1.5 h | 5.8 ± 0.67 h | 5.956 ± 0.043 h | 12.43 ± 0.018 h | 5.7 ± 0.32 h | 11.4 ± 0.43 h
